Test results taken from patent US7037670B2, “Peptide substrates for assay of extracellular signal-regulated protein kinase 1 and 2 activity” (Board of Supervisors of Louisiana State University and …, priority 2002, dated 2006).

Legend:
[1] = tested on: MAP kinase; conditions: reported, Kameshita et al., 1997; cited from earlier work
[2] = molecular target: ERK1 (Rattus norvegicus, UniProt P21708); experiment: Phosphorylation of substrates by purified, activated ERK1 (32P incorporation, P81 paper); format: biochemical
ERK1, sequence (P21708 2-380 limits assumed): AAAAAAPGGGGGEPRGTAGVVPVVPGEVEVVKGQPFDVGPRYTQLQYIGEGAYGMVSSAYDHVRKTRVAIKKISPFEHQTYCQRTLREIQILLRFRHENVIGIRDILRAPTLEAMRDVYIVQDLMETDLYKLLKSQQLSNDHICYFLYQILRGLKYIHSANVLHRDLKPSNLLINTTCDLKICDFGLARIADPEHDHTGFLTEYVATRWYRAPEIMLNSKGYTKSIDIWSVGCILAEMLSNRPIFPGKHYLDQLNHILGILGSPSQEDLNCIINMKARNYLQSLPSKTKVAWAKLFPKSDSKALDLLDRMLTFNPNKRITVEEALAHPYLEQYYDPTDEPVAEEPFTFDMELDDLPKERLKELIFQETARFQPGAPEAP
Source text: Materials: Purified peptides were obtained from Sigma (St. Louis, Mo.) or custom synthesized by Louisiana State University Health Science Center Core Laboratories (New Orleans La.). Purified, activated ERK1 was a gift from Dr. M. H. Cobb (University of Texas Southwestern Medical Center, Dallas, Tex.). Purified, recombinant, activated ERK2 was a gift from Dr. N. G. Ahn (University of Colorado, Boulder, Colo.). Except as indicated below, other materials were purchased from Sigma. The new synthetic peptides modeled after Ser31 in human tyrosine hydroxylase are indicated.
(§1) ERK activity assays: Aliquots of supernatants or ERK1/2 immunoprecipitates (suspended in lysis solution) were mixed with substrate (1 mM final, unless stated otherwise) at 4° C. Phosphorylation reactions were initiated by addition of an equal volume of assay buffer containing [γ-^32P]ATP (NEN Life Sciences Products, now PerkinElmer Life Sciences, Boston, Mass.) and Mg^++ and allowed to proceed for 10 min at 30° C., after which duplicate 20 μl aliquots were spotted onto Whatman P81 paper. As would be predicted by the presence of multiple basic residues in the peptides, the ability of P81 paper to bind >90% of each of the peptides used in Tables 2 and 3 was confirmed by UV detection following RP-HPLC. The final reaction mixtures (50 μl) contained 50 mM β-glycerophosphate, 10 mM MgCl2, 1 mM EGTA, 1 mM dithiothreitol, 1 mM benzamidine, 0.1 mM ATP, 0.1 mM Na3VO4, 10 μM calmidazolium, 2 μM peptide inhibitor of cyclic AMP-dependent protein kinase ([…], SEQ ID NO: 24), 10 μg/ml leupeptin, and 0.025% Tween 20.
To test the effectiveness of various peptide substrates, peptide substrates were compared with myelin basic protein (“MBP,” SEQ ED NO: 1) for relative ability to be phosphorylated by purified ERK1 or ERK2. The ERK activity assay was as described above in Example 1. In Table 2, each value represents the median of three independent determinations, performed in duplicate. While all peptides were assayed at a concentration of 1 mM, MBP phosphorylation—given as a frame of reference at a concentration typically used in such assays—was assayed at 20 μM. ^32P incorporation into MBPtide (SEQ ID NO: 2) was 330 nmol/min/mg under the assay conditions used.

[3] = tested on: ERK1/2; experiment: In vitro kinase assay on PC12 cellular extracts with no further purification (with and without nerve growth factor); format: biochemical, rat
Protocol: Cells were treated with or without added 100 ng/ml 7S nerve growth factor for up to 8 h. One group of cells was harvested for blot immunolabeling and solubilized with sodium dodecyl sulfate solution, as described in J. W. Haycock, “Multiple forms of tyrosine hydroxylase in human neuroblastoma cells: Quantitation with isoform-specific antibodies,” J. Neurochem., vol. […] A second group of cells was harvested for kinase assays and subjected to trituration in an ice-cold lysis solution of 50 mM β-glycerophosphate, 1 mM EGTA, 1 mM dithiothreitol, 1 mM benzamidine (Eastman Kodak Co., Rochester, N.Y.), 0.1 mM Na3VO4, 10 μg/ml leupeptin, and 0.05% Tween 20. Supernatants from the latter samples were generated by sonication and centrifugation (20 min at 10,000×g) in a refrigerated centrifuge (Savant, Farmingdale, N.J.). In some experiments, ERK1/2 was isolated prior to assaying kinase activity by immunoprecipitation of the PC12 cellular extracts with anti-pan ERK1/2 and protein A-Sepharose. […] ERK activity assays: Aliquots of supernatants or ERK1/2 immunoprecipitates (suspended in lysis solution) were mixed with substrate (1 mM final, unless stated otherwise) at 4° C. Phosphorylation reactions were initiated by addition of an equal volume of assay buffer containing [γ-^32P]ATP (NEN Life Sciences Products, now PerkinElmer Life Sciences, Boston, Mass.) and Mg^++ and allowed to proceed for 10 min at 30° C., after which duplicate 20 μl aliquots were spotted onto Whatman P81 paper. […] Experiments were conducted to test the ability of different substrates to assay for activation of ERK1/2 in situ. […] Cells were harvested and-assayed for ERK1/2 activity by various methods.

[4] = molecular target: ERK2 (Rattus norvegicus, UniProt P63086); experiment: Steady-state kinetic analyses of peptide substrates for ERK2; format: biochemical; conditions: median of three determinations
ERK2, sequence (P63086 2-358 limits assumed): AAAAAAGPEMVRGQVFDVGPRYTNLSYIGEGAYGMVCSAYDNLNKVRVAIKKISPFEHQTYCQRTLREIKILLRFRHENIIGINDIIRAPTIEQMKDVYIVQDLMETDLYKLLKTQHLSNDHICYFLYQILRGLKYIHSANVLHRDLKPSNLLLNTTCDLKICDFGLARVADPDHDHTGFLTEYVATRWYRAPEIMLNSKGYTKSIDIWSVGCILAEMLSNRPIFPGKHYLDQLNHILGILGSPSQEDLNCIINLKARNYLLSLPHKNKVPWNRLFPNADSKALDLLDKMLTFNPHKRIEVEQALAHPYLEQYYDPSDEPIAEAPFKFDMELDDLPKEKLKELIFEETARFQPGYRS
Protocol: as §1
In Table 5, each value represents the median of three independent determinations, performed in duplicate. […] See I. Kameshita et al., 1997. […] 355, pp. 5641-5646 (1996); see also C. N. Prowse et al., “Catalytic reaction pathway for the mitogen-activated protein kinase ERK2,” Biochem., vol. 39, pp. 6258-6266 (2000).

Sequence: APRTPGGRR (This sequence is MBPtide (Thr 97).) [SEQ ID NO: 2]
- Km [1]: 1600 µM
- 32P incorporation ([2]; peptide 1 mM, assay conditions of Table 2): 330 nmol/min/mg
- RELATIVE 32P INCORPORATION (% OF MBP) ([2]; peptides 1 mM, MBP 20 μM, 10 min at 30° C., median of three determinations): 28 % OF MBP
- pattern and degree of ERK activation over time compared with ERK immunoprecipitation and blot immunolabeling assays ([3]; PC12 cells with and without NGF, up to 480 min, extracts without purification): differed
- levels of protein kinase activity in cellular extracts ([3]; PC12 extracts, no kinase purification, EGTA, calmidazolium, cAMP-dependent protein kinase inhibitor present): Higher levels of protein kinase activity
- Kmin(app) [4]: 2.0 mM
- Vmax(app) Relative ([4]; relative values): 46
